Usually Km stands for the substrate concentration at which the rate is half of its maximum. A word on the kcat: it is the maximal rate divided by the concentration of active sites.

Substrate in this data set: Nc1c(Cl)cccc1-c1cc[nH]c1
Put plainly: purified protein. The settings on record: E. coli Fre 2.5 μM, FAD 1 μM, MgCl2 10 mM, NADH 2.5 mM, 20 mM Tris pH 7.4, PrnC 2.5 μM, chlorination. The class given is biochemical, Pseudomonas fluorescens.

B1: PrnC (NT11-PrnC-6His; native PrnC) (Pseudomonas fluorescens) (protein)
chain: MTQKSPANEHDSNHFDVIILGSGMSGTQMGAILAKQQFRVLIIEESSHPRFTIGESSIPETSLMNRIIADRYGIPELDHITSFYSTQRYVASSTGIKRNFGFVFHKPGQEHDPKEFTQCVIPELPWGPESHYYRQDVDAYLLQAAIKYGCKVHQKTTVTEYHADKDGVAVTTAQGERFTGRYMIDCGGPRAPLATKFKLREEPCRFKTHSRSLYTHMLGVKPFDDIFKVKGQRWRWHEGTLHHMFEGGWLWVIPFNNHPRSTNNLVSVGLQLDPRVYPKTDISAQQEFDEFLARFPSIGAQFRDAVPVRDWVKTDRLQFSSNACVGDRYCLMLHANGFIDPLFSRGLENTAVTIHALAARLIKALRDDDFSPERFEYIERLQQKLLDHNDDFVSCCYTAFSDFRLWDAFHRLWAVGTILGQFRLVQAHARFRASRNEGDLDHLDNDPPYLGYLCADMEEYYQLFNDAKAEVEAVSAGRKPADEAAARIHALIDERDFAKPMFGFGYCITGDKPQLNNSKYSLLPAMRLMYWTQTRAPAEVKKYFDYNPMFALLKAYITTRIGLALKK
notes: N-terminal 11-residue NT11 solubility tag and C-terminal 6His tag, pET-28a(+), expressed in E. coli T7 Express, Ni-NTA purified; dimer by cryo-EM
For B1, the Km worked out at 15.8 ± 0.7 µM and the catalytic constant (kcat) is 0.00767 s⁻¹.
